In assay [1] the target is T1, Ssa1p (S. cerevisiae, UniProt P10591 1-642).
T1 construct: Ssa1p, cytosolic Hsp70 of S. cerevisiae, full length (residues 1-642 by the domain constructs); Expressed from a pCold2 vector with a C-terminal His6 tag; also called Ssa1p-His6; Ssa proteins; source: E. coli BL21(DE3) co-expressing trigger factor, purified (Ni-NTA agarose)
In words: pull-down; 200 pmol GST or GST-nucleoporin fusion and 40 pmol Ssa1p or Ssa2p incubated with Glutathione Sepharose in Buffer 88 (20 mM HEPES-KOH pH 6.8, 2 mM Mg(OAc)2, 150 mM KOAc) with 0.10% wt/vol Tween-20, 4°C, 2 hr; eluted with 10 mM reduced glutathione; Ssa proteins detected by Western blotting with anti-Ssa protein antibodies. The note with it: both partners purified.

The target in assay [2] is T2, Ssa2p (S. cerevisiae, UniProt P10592 1-639).
T2 construct: Ssa2p, major cytosolic Hsp70 of S. cerevisiae, full length (residues 1-639 by the domain constructs); Expressed from a pCold2 vector with a C-terminal His6 tag; also called Ssa2p-His6; Ssa proteins; source: E. coli BL21(DE3) co-expressing trigger factor, purified (Ni-NTA agarose)
The assay is described as above. Conditions: both partners purified.

T2 sequence (P10592 whole entry, the tested form may be a part): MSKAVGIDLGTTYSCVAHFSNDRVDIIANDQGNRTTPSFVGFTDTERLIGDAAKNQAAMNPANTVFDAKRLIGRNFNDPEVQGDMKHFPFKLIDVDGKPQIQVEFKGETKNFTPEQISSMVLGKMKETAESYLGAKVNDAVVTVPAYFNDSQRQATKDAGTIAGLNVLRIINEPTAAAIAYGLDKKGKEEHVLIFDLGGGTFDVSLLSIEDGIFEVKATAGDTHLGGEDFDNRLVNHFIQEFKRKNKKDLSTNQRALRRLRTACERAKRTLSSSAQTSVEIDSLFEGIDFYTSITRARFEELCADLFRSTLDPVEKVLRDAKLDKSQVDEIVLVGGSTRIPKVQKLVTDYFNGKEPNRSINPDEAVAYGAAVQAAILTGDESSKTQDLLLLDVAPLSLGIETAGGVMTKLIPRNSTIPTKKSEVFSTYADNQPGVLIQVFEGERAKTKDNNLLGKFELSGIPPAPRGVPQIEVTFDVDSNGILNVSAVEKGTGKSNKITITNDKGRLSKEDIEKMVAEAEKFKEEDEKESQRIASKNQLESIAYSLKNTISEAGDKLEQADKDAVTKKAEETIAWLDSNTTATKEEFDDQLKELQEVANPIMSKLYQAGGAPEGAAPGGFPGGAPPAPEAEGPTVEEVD
T1 sequence (P10591 whole entry, the tested form may be a part): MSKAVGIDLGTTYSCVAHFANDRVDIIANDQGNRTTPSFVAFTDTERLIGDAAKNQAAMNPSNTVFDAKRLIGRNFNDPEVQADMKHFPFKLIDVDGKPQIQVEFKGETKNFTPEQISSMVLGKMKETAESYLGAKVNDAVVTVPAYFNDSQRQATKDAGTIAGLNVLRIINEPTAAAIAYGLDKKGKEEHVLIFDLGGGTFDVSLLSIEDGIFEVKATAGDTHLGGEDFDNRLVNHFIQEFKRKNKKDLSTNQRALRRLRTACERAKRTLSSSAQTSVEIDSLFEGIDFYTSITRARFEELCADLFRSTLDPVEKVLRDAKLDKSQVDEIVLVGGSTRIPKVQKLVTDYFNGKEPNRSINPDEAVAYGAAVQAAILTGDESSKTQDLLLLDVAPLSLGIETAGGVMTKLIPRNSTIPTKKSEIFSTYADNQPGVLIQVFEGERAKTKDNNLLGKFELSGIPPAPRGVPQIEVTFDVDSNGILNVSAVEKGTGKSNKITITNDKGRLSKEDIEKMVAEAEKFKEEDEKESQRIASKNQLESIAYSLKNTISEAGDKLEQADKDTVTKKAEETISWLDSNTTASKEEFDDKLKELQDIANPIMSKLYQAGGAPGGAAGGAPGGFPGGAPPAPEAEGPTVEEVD

B1: GST-Nup116(165–715)p (domain or fragment, S. cerevisiae, UniProt Q02630 165-715, looked up)
chain: RKFGTSQNGTGTTFNNPQGTTNTGFGIMGNNNSTTSATTGGLFGQKPATGMFGTGTGSGGGFGSGATNSTGLFGSSTNLSGNSAFGANKPATSGGLFGNTTNNPTNGTNNTGLFGQQNSNTNGGLFGQQQNSFGANNVSNGGAFGQVNRGAFPQQQTQQGSGGIFGQSNANANGGAFGQQQGTGALFGAKPASGGLFGQSAGSKAFGMNTNPTGTTGGLFGQTNQQQSGGGLFGQQQNSNAGGLFGQNNQSQNQSGLFGQQNSSNAFGQPQQQGGLFGSKPAGGLFGQQQGASTFASGNAQNNSIFGQNNQQQQSTGGLFGQQNNQSQSQPGGLFGQTNQNNNQPFGQNGLQQPQQNNSLFGAKPTGFGNTSLFSNSTTNQSNGISGNNLQQQSGGLFQNKQQPASGGLFGSKPSNTVGGGLFGNNQVANQNNPASTSGGLFGSKPATGSLFGGTNSTAPNASSGGIFGSNNASNTAATTNSTGLFGNKPVGAGASTSAGGLFGNNNNSSLNNSNGSTGLFGSNNTSQSTNAGGLFQNNTSTNTSGGGLFS
notes: Cloned into pGEX-4T-2; also called Nup116p; source: DH5α, purified (Glutathione Sepharose, NAP-10 desalting)
Regarding B1, the binding result in assay [1] and in assay [2] was “binds” in each case.

The record behind these values is PMC4432389, “Cytosolic Hsp70 and co-chaperones constitute a novel system for tRNA import into the nucleus” (eLife, 2015).
